Kd, koff and kon data for 2 molecules are collected here from paper PMC10215022 (mAbs, 2023).

For the assay, the target named is SARS-CoV-2 Wuhan (WT) spike protein RBD, His-tagged (SARS-CoV-2 Wuhan (WT), UniProt P0DTC2). Put plainly: SPR.

B1: casirivimab (REGN10933) (antibody, V domains shown)
VH: QVQLVESGGGLVKPGGSLRLSCAASGFTFSDYYMSWIRQAPGKGLEWVSYITYSGSTIYYADSVKGRFTISRDNAKSSLYLQMNSLRAEDTAVYYCARDRGTTMVPFDYWGQGTLVTVSS
VL: DIQMTQSPSSLSASVGDRVTITCQASQDITNYLNWYQQKPGKAPKLLIYAASNLETGVPSRFSGSGSGTDFTFTISGLQPEDIATYYCQQYDNLPLTFGGGTKVEIK
Turning to B1, binding was characterised by a dissociation constant (Kd) of 0.071 nM; the koff (as a rule, the rate constant with which the complex falls apart) stood at 0.00021 s⁻¹; the kon (in general, a measure of how fast the partners come together) came out at 3e+06 M⁻¹ s⁻¹.

B2: imdevimab (REGN10987) (antibody, V domains shown)
VH: QVQLVESGGGVVQPGRSLRLSCAASGFTFSNYAMYWVRQAPGKGLEWVAVISYDGSNKYYADSVKGRFTISRDNSKNTLYLQMNSLRTEDTAVYYCASGSDYGDYLLVYWGQGTLVTVSS
VL: QSALTQPASVSGSPGQSITISCTGTSSDVGGYNYVSWYQQHPGKAPKLMIYDVSKRPSGVSNRFSGSKSGNTASLTISGLQSEDEADYYCNSLTSISTWVFGGGTKLTVL
As for B2, the affinity, expressed as Kd, was 0.087 nM; the koff was 0.00029 s⁻¹; the kon came to 3.4e+06 M⁻¹ s⁻¹.
